{"source": "paper PMC5394239", "about": "(Nature Communications, 2017)", "biological_target": "the molecule itself", "test": "cryo-EM structure", "data": [{"protein": "SARS-CoV S ectodomain, uncleaved, trimerization motif and His tag removed by thrombin (domain or fragment) not shown", "values": [{"measurement": "stoichiometry N", "result": 3}]}]}
